# Experimental data published in US7056679B2, “Target specific screening and its use for identifying target binders” (Antyra, Inc., priority 2001, dated 2006).
# How the values were obtained:
# DGI-2 = biological target: T1, DGI-2 (Homo sapiens, UniProt Q15004); assay: ELISA analysis of phage on DGI-2 polypeptide (specific binding); settings: for DGI-2 (OD): binding to DGI-2 polypeptide (specific binding), phage ELISA units read at 405 nm; for DGI-2/LDH (OD): ratio of specific binding to non-specific binding
# T1 construct: encompassed the entire DGI-2 open reading frame (ORF); His-tag of vector pIVEX2.3-MCS (inferred from the vector and from the reverse primer lacking a stop codon); made in house; host or cells: cell-free in vitro translation (Rapid Translation System RTS, Roche; E. coli lysate)
# T1 sequence (Q15004 1-111): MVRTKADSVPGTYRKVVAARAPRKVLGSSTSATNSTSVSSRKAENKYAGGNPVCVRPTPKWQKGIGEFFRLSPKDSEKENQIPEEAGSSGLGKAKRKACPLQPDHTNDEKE
# In short: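 Recombinant DGI-2 from in vitro translation, LDH (non-specific) and controls were coated at 500 ng/well and blocked with 2% milk-PBS. Phage from individual clones bound for 2 hr at room temperature, then anti-M13-HRP with ABTS was read at 405 nm; a clone counted as positive at ≥2-fold over background.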
# [1] = test system: lactate dehydrogenase (LDH); assay: ELISA analysis of phage on LDH (irrelevant, non-specific target); assay type: binding; settings: peptide binding to LDH polypeptide (non-specific binding); phage ELISA units read at 405 nm
# In short: (§1)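 Phage from picked clones (M13KO7 helper) bound 2 hr at room temperature to wells coated overnight at 4 °C with 500 ng/well anti-ETAG antibody or LDH, milk-blocked. Detection with HRP-anti-M13 (1:3000) and ABTS at 405 nm; positive when A405 ≥2-fold over background.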
# E-tag antibody = assay: ELISA analysis of phage on antibody raised against ETAG (positive control); settings: peptide binding to E-tag antibody; phage ELISA units read at 405 nm
# In short: as §1
DGI-2 (OD) (DGI-2),DGI-2/LDH (OD) (DGI-2),LDH (OD) [1],Substance,ETAG (OD) (E-tag antibody)
1.6 OD,1.6,0.9 OD,WAGSTDLWQLWSLWVKPELR (DGI-2-20F-3-B7; listed as Escherichia coli),16.4 OD
8.3 OD,8.3,1.0 OD,WEVGQVEKFSRGVGGWWPTG [DGI-2-20R-3-D3],16.8 OD
1.1 OD,1.3,0.8 OD,WFTHVVEKIF [DGI-2-40F-3-A4],6.7 OD
6.7 OD,6.4,1.0 OD,WGCVFRQWASGSGAGCARRH (DGI-2-20R-3-D9; listed as Escherichia coli),19.7 OD
9.6 OD,9.4,1.0 OD,WWREWVDGSLRGGGGTVLKD (DGI-2-20R-3-A122; listed as Escherichia coli),15.1 OD
3.5 OD,3.9,0.9 OD,YAMSSRECGIRNSGLILSMW (DGI-2-20F-PP-C9; listed as Escherichia coli),31.6 OD
4.7 OD,3.9,1.2 OD,YTPASILTGFQRGYEGAGNG (DGI-2-20R-4-G7; listed as Escherichia coli),11.6 OD

# Second part, the substance before the results:
Substance,DGI-2 (OD) (DGI-2),DGI-2/LDH (OD) (DGI-2),LDH (OD) [1],ETAG (OD) (E-tag antibody)
WAASCFWGHVALGCGRNGQG (DGI-2-20R-3-A11; listed as Escherichia coli),6.2 OD,5.7,1.1 OD,14.7 OD
WRARSSGYLFALTPNFGVPHIPSSALRRMH.GLMARDLRPV [DGI-2-40F-3-C10],1.1 OD,1.3,0.9 OD,7.7 OD
WVVALRRIRLGLRRGVECLL (DGI-2-20F-PP-D5; listed as Escherichia coli),2.7 OD,2.3,1.2 OD,33.6 OD
WWERFVWGRPVDDGVVVMAT (DGI-2-20R-3-B1; listed as Escherichia coli),6.3 OD,6.2,1.0 OD,14.5 OD
YDQVWNSLLAAVLGGQELVN (DGI-2-20F-3-D112; listed as Escherichia coli),1.4 OD,1.4,1.0 OD,19.9 OD
YGTAGLFLRRACTMSDPGDPLGRRGYTGWGVLWDEWVTGS (DGI-2-40F-3-C8; listed as Escherichia coli),5.7 OD,6.0,0.9 OD,13.6 OD
